The source of these data is patent publication US20250289897A1, “LEPTIN RECEPTOR AGONISTIC ANTIBODY AS MONO OR COMBO THERAPIES TO TREAT OBESITY” (ELI LILLY AND COMPANY, priority 2024, published 2025).

For orientation: EC50 means the concentration needed to bring the measured effect to its halfway point.

For one assay, the target named is T1, mouse-LEPR (Mus musculus, UniProt P48356).
T1 construct: introducing DNA plasmids encoding full-length LEPR of different species and STAT3-luciferase reporter gene into HEK293 cells; expressed in transfected cells; host or cells: HEK293 (HEK293-STAT3Luc-msLepR9)
T1 sequence (P48356 22-1162): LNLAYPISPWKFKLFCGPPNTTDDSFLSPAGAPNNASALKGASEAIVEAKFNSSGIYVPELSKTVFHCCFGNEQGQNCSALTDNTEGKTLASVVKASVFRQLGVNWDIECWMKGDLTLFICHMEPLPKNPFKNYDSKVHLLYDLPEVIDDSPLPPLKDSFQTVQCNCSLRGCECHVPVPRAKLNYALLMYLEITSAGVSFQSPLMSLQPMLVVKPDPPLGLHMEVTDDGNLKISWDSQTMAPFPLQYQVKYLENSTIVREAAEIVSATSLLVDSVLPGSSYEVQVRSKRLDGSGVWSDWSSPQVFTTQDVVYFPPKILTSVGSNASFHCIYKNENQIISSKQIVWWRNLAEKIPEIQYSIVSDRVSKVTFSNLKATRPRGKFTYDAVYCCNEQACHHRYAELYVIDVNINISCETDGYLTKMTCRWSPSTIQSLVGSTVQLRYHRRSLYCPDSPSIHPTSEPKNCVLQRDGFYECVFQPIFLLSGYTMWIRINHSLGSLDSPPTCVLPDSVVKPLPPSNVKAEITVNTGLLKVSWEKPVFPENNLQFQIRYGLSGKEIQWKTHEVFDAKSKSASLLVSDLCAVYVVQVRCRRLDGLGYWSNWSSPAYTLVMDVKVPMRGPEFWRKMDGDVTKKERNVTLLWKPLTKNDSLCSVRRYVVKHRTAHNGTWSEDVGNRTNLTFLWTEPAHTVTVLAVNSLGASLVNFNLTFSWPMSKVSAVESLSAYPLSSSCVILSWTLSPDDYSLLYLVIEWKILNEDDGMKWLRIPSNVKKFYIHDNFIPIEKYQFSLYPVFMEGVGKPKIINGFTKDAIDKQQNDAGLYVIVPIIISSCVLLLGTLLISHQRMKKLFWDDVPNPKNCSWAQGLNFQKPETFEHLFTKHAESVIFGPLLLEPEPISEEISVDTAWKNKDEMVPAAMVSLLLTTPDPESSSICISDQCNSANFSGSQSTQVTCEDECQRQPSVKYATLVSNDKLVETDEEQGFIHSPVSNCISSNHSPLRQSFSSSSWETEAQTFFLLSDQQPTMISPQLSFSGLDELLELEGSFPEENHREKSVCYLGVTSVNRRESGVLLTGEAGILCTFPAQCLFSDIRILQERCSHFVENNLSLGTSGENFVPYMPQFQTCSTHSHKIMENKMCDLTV
Kind of assay: STAT3-luciferase reporter assay in HEK293-STAT3Luc-msLepR9 cells. The format is cell-based. An excerpt: (§1) LEPR is a cell surface single-pass transmembrane receptor. Activation of LEPR leads to phosphorylation of intracellular STAT3 (pSTAT3) and subsequent target gene transcription. To measure LEPR activation by anti-LEPR antibodies in the present disclosure, five independent STAT-luciferase reporter cell lines were established by introducing DNA plasmids encoding full-length LEPR of different species and STAT3-luciferase reporter gene into HEK293 cells (Table 4). […]
(§2) Before plating the cells for luciferase assays, the poly-D-Lysine coated 96-well plates (Corning Inc, #354651) were rinsed once with phosphate buffered solution (PBS). […] Cell lysing and One-Glo luciferase substrate solution (Promega, #E6120) were then added to each well, and relative luciferase units (RLUs) were measured on a ClarioStar plate reader. For each reporter cell line, positive control LEPR activation was calculated as the average RLUs stimulated by 20 nM recombinant human leptin protein (SEQ ID NO:27) minus the average RLUs of unstimulated cells and was set as maximum LEPR activation (100%). […]
Background: Reporter assays use an easily measured gene product as a stand-in for the process of interest.

A further assay has as its system canine-LEPR. The assay can be described thus: STAT3-luciferase reporter assay in HEK293-STAT3Luc-dLepR7 cells. The format is cell-based, Canis lupus.
Excerpt: as §1, §2

For “human leptin: recombinant human leptin protein (SEQ ID NO:27), positive control”, the EC50 with mouse-LEPR (antibodies at concentrations up to 90 nM, read-out: EC50 (nM) ± SEM) was found to be 0.0788 ± 0.017 nM; in the assay with canine-LEPR (STAT3-luciferase, 20 hours, read-out: EC50 (nM) ± SEM) it was 0.582 ± 0.172 nM. Also, the “Agonism (%) ± SEM” value is reported as 116.17% with mouse-LEPR (vs 20 nM recombinant human leptin, antibodies up to 90 nM) and 107.5% with canine-LEPR (top of fitted curve vs response to 20 nM recombinant human leptin).
